The source of these data is article PMC6213480, “A Novel Cold-Adapted Leucine Dehydrogenase from Antarctic Sea-Ice Bacterium Pseudoalteromonas sp. ANT178” (Marine Drugs, 2018).

Some test systems named below: CC(C)C[C@H](N)C(=O)O; CSCCC(N)C(=O)O; N=C(N)NCCC[C@H](N)C(=O)O.
Common to all, as to experiment: purified protein
Common to all, as to type: biochemical, Pseudoalteromonas sp. ANT178
What all share (details): oxidative deamination with NAD+, standard assay 0.1 M glycine-NaOH pH 10.4, 1 mM NAD+, 30 °C

For data set [1], the system named is N[C@@H](Cc1ccc(O)cc1)C(=O)O.

For orientation: Km means the concentration of substrate that gives half-maximal velocity. As usually defined, the Vmax is the top rate of the reaction or transport when substrate is in excess. What is called kcat is the number of substrate molecules converted per active site and unit of time at saturation. As usually defined, the kcat/Km is the turnover number divided by the Michaelis constant. Turning to rPsLeuDH (Pseudoalteromonas sp.), in the data set with CC(C)C[C@H](N)C(=O)O, the Km stood at 330 µM, the maximal velocity (Vmax) amounted to 15.2 µmol/min/mg, the kcat came to 30.1 s⁻¹ and the kcat/Km was determined as 91300 M⁻¹ s⁻¹. In addition, in the data set with CSCCC(N)C(=O)O, the Michaelis-Menten constant (Km) is 750 µM, the Vmax came out at 8.38 µmol/min/mg, the catalytic constant (kcat) was 16.6 s⁻¹ and the catalytic efficiency (kcat/Km) is 22100 M⁻¹ s⁻¹. For the same substance, in the data set on N=C(N)NCCC[C@H](N)C(=O)O, the Km was 840 µM, the Vmax was 7.13 µmol/min/mg, the turnover number (kcat) was determined as 14.1 s⁻¹ and the kcat/Km stood at 16800 M⁻¹ s⁻¹. In data set [1], the Km was determined as 480 µM, the maximal velocity (Vmax) was determined as 13.3 µmol/min/mg, the kcat stood at 26.4 s⁻¹ and the kcat/Km amounted to 55000 M⁻¹ s⁻¹.
